B1: E3 ubiquitin-protein ligase CHIP (Homo sapiens), Q9UNE7-1 (parent)
chain: MKGKEEKEGGARLGAGGGSPEKSPSAQELKEQGNRLFVGRKYPEAAACYGRAITRNPLVAVYYTNRALCYLKMQQHEQALADCRRALELDGQSVKAHFFLGQCQLEMESYDEAIANLQRAYSLAKEQRLNFGDDIPSALRIAKKKRWNSIEERRIHQESELHSYLSRLIAAERERELEECQRNHEGDEDDSHVRAQQACIEAKHDKYMADMDELFSQVDEKRKKRDIPDYLCGKISFELMREPCITPSGITYDRKDIEEHLQRVGHFDPVTRSPLTQEQLIPNLAMKEVIDAFISENGWVEDY

Variants of: B1
Settings: with lrrk2_human LRRK2, Q5S007
lrrk2_human LRRK2, Q5S007, sequence (Q5S007 whole entry): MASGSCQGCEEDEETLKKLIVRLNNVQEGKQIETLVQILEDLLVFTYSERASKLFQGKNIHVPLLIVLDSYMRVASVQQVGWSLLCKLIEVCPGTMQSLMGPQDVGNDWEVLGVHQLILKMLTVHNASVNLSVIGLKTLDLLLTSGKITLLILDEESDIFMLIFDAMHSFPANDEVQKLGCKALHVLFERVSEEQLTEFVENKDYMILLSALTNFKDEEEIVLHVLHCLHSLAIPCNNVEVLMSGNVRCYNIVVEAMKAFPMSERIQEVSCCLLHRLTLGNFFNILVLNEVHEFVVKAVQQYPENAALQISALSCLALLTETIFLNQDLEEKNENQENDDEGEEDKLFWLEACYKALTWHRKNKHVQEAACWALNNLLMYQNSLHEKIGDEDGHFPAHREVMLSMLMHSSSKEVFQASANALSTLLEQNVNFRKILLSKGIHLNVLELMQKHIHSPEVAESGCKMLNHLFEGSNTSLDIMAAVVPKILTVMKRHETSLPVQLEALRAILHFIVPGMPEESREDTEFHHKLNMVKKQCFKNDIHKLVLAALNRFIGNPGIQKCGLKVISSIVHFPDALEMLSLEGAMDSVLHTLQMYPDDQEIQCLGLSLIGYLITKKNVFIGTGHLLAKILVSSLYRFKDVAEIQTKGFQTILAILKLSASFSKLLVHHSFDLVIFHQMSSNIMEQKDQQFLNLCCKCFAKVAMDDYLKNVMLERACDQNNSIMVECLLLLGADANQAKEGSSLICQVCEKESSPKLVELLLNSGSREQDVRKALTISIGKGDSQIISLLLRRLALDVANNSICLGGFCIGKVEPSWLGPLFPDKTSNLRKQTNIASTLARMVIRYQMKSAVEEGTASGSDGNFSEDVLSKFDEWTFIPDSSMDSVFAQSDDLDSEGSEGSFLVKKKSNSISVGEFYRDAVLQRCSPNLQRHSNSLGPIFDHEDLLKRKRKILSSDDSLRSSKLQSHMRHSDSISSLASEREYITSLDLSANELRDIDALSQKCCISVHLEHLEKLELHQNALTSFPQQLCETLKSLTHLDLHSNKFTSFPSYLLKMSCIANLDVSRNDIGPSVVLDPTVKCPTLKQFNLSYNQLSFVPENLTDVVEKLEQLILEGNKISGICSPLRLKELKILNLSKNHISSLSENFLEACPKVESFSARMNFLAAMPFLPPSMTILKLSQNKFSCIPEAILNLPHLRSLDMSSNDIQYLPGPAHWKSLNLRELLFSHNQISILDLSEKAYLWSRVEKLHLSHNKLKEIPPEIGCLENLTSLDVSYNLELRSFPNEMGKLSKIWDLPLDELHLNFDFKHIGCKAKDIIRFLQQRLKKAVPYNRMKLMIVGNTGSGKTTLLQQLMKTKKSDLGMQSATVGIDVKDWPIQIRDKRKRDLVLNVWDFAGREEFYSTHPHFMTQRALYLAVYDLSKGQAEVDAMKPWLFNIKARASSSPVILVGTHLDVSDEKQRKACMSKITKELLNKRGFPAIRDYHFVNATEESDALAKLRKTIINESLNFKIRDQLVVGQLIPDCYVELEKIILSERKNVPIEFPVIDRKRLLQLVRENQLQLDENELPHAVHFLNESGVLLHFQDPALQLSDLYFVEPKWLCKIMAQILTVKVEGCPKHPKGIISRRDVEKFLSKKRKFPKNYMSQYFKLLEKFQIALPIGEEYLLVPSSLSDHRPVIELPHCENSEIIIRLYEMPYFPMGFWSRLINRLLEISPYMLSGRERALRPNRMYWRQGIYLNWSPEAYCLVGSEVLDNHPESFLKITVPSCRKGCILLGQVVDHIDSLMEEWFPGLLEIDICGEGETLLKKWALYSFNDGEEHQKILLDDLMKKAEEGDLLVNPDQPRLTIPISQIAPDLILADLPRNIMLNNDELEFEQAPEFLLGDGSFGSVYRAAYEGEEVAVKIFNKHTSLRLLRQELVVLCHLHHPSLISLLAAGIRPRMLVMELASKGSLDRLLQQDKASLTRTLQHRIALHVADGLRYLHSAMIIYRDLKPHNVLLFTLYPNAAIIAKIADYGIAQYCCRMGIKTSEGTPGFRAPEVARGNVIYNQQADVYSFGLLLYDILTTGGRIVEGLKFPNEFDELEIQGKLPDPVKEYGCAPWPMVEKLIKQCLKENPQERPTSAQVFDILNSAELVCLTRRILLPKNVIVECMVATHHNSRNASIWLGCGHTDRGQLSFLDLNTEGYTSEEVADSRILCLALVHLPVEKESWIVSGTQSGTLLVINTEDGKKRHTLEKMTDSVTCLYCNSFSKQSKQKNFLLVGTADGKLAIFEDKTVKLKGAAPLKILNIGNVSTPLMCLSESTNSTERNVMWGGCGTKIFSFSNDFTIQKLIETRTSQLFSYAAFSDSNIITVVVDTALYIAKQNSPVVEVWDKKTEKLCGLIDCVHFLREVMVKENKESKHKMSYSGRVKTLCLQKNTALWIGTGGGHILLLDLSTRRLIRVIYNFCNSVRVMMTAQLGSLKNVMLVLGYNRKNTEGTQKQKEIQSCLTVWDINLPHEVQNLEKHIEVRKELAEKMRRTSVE

| effect of a mutation on the interaction | Variant |
| --- | --- |
| disrupting interaction | K30C |
